Results from patent US20230183364A1 (ELICERA THERAPEUTICS, published 2023).

T1: Biotinylated human IL13Rα2 (hIL13Rα2-avi) (human, UniProt Q14627 29-331, biotinylated in vivo on the Avi-tag by co-expressed BirA)
T1 construct: Produced in Sf9 cells; native signal peptide (aa 1-28) exchanged for the gp67 signal peptide; 42.2 kDa; also called human IL13Rα2-avi; Human ILRα2-avi
T1 sequence: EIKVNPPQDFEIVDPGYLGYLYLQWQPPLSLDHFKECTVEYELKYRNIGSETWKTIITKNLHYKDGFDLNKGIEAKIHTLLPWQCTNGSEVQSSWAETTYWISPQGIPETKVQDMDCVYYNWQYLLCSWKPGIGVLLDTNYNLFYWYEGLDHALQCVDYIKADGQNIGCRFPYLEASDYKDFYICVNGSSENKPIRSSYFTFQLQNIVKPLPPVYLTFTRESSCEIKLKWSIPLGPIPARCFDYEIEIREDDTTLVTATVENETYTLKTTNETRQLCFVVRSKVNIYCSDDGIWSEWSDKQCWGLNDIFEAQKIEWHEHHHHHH

T2: Mouse IL13Rα2 Fc chimera (mIL13Rα2-Fc, RnD Systems #539-IR) (mouse, UniProt O88786 22-334)
T2 construct: range 22-334; Bought; produced in NS0 cells; homodimer through Fc fusion; also called mILRα2-Fc; Mouse ILRα2-Fc; Fc part of the bought chimera not given
T2 sequence (looked up): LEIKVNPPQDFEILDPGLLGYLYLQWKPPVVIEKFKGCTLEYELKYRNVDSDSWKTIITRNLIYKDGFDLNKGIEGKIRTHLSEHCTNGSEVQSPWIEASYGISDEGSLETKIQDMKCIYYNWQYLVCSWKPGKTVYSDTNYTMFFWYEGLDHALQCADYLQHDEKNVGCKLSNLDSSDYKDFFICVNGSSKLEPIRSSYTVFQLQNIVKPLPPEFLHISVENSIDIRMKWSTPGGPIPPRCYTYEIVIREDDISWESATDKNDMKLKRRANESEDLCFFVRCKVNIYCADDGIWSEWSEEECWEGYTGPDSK

T3: Human IL13Rα1-Fc (hIL13Rα1-Fc, RnD Systems #146-IR) (human, UniProt P78552 27-342)
T3 construct: Bought; Fc part of the bought chimera not given
T3 sequence (looked up): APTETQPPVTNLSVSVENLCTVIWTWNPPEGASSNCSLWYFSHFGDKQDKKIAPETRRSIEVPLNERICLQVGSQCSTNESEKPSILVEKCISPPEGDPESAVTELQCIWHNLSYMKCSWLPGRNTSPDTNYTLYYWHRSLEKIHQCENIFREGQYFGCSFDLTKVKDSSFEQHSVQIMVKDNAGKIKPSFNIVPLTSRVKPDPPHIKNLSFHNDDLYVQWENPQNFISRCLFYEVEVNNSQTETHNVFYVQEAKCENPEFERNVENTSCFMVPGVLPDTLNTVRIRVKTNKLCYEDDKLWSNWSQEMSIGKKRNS

T4: Human IL13Rα2 Fc chimera (hIL13Rα2-Fc, RnD Systems #7147-IR) (human, UniProt Q14627 22-342)
T4 construct: Bought; produced in CHO cells; homodimer through Fc fusion; also called hILRα2-Fc; Human ILRα2-Fc; not shown: Fc part (and any linker) of the bought chimera
T4 sequence: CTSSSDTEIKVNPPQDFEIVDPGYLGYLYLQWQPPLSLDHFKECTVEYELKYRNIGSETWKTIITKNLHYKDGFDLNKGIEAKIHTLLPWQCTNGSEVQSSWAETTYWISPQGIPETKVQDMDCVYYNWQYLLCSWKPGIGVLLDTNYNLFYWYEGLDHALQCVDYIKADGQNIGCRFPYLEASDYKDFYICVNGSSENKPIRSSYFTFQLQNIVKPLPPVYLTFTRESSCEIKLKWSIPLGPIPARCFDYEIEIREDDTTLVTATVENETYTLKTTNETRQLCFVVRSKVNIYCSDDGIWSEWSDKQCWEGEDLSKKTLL


Legend:
streptavidin [1] = target: T5, streptavidin (UniProt P22629 37-163, limits assumed); test: ELISA on coated streptavidin, scFv in bacterial supernatant, anti-FLAG-HRP
T5 construct: Negative control antigen; cognate antigen of G-strep-1 scFv; also called negative control protein streptavidin
Method: (§1) Human IL13Rα2-avi (see Example A1), and negative control protein streptavidin were coated into a 384-ELISA well plate at 1 μg/ml in PBS at 4° C. overnight.
(§2) Plates were washed twice with MilliQ water and blocked for 2 h in blocking buffer (phosphate-buffered saline (PBS) supplemented with 0.5% bovine serum albumin (BSA)+0.05% TWEEN 20®). Triple-FLAG-tagged scFv 1E10B9 and mAb47, present in bacterial supernatant, were diluted 1:2, 1:20 and 1:200 in blocking buffer and allowed to bind. An assay control scFv (G-strep-1), specific for streptavidin, was also included. Detection of binding was enabled through an HRP-conjugated anti-FLAG M2 antibody (Sigma-Aldrich #A8592) followed by incubation with 1-step Ultra TMB ELISA substrate (ThermoFisher Scientific #34029). The colorimetric signal development was stopped by adding 1 M sulfuric acid and plates were read at 450 nm. All samples were assayed in duplicates.

[2] = target: T1, Biotinylated human IL13Rα2 …; test: ELISA on coated human IL13Ra2, scFv in bacterial supernatant, anti-FLAG-HRP
Method: as §1, §2

[3] = target: T1, Biotinylated human IL13Rα2 …; test: SPR single cycle kinetics, scFv captured
Excerpt: (§3) An anti-FLAG M2 antibody (Sigma-Aldrich #F1804), functioning as a capture ligand was immobilized onto all four surfaces of a CM5-S amine sensor chip on a BIACORE® T200 instrument (GE Healthcare) according to manufacturer's recommendations.

[4] = target: T2, Mouse IL13Rα2 Fc chimera (mIL13Rα2-Fc, …); test: SPR single cycle kinetics, scFv captured
Excerpt: as §3

[5] = target: T3, Human IL13Rα1-Fc (hIL13Rα1-Fc, RnD …); test: ELISA, coated hIL13Ra1-Fc, anti-FLAG-HRP
Method: Coating proteins hIL13Rα2-avi (Example A1), hIL13Rα2-Fc (RnD Systems #7147-IR), mIL13Rα2-Fc (RnD Systems #539-IR) and hIL13Rα1-Fc (RnD Systems #146-IR) were diluted to 1 μg/ml in PBS and directly coated into a 384-well ELISA plate. Two negative control proteins, streptavidin and a non-relevant protein, were also coated. Following incubation of plates with coating-proteins overnight at 4° C., plates were washed twice with MilliQ water and blocked for 2 h in blocking buffer (PBS supplemented with 0.5% BSA+0.05% TWEEN 20®). Triple-FLAG-tagged W-ME107 scFv clones present in bacterial supernatant were diluted 1:10 in blocking buffer and allowed to bind. Detection of binding was enabled through an HRP-conjugated anti-FLAG M2 antibody (Sigma-Aldrich #A8592) followed by incubation with 1-step Ultra TMB ELISA substrate (ThermoFisher Scientific #34029). The colorimetric-signal development was stopped by addition of 1 M sulfuric acid and plates were analyzed at […].

streptavidin [6] = target: T5, streptavidin; test: SPR: scFv captured on anti-FLAG M2, streptavidin injected
Method: An anti-FLAG M2 antibody (Sigma-Aldrich #F1804), functioning as a capture ligand, was immobilized onto all four surfaces of a CM5-S amine sensor chip through ECD/NHS chemistry on a BIACORE® T200 instrument (GE Healthcare) according to manufacturer's recommendations.
The surfaces were regenerated with 10 mM glycin-HCl pH 2.1. All experiments were performed at 25° C. in HBS supplemented with 0.05% TWEEN 20®, pH 7.5.

[7] = target: T4, Human IL13Rα2 Fc chimera (hIL13Rα2-Fc, …); test: SPR single cycle kinetics, scFv captured
Excerpt: as §3

T5 sequence (P22629 37-163 limits assumed): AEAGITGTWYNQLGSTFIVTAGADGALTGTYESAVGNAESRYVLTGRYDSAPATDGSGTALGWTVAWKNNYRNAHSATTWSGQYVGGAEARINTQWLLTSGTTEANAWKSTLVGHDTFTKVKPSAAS

| Binder | binding result (streptavidin [1]) | binding result [2] | Kd [3] [nM] | koff [3] [s⁻¹] | kon [3] [M⁻¹ s⁻¹] | Kd [4] [nM] | koff [4] [s⁻¹] | kon [4] [M⁻¹ s⁻¹] | binding result [5] | binding result (streptavidin [6]) | Kd [7] [nM] | koff [7] [s⁻¹] | kon [7] [M⁻¹ s⁻¹] |
| --- | --- | --- | --- | --- | --- | --- | --- | --- | --- | --- | --- | --- | --- |
| 1E10B9 scFv (scFv, also called X-ME107-B9) scFv: QIQLVQSGPELKKPGETVKIYCKASGYSFRDYSVHWVKQAPGKGLKWMGWINTETGEPTYVDEFKGRFAFFLEASANTVYLQISNLKNEDTATYFCDYRFTYWGQGTLVTVSAGGGGSGGGGSGGGGSEIVMTQTPLILSVTIGQPASISCKSSQSVLYSNGKTYLNWLLQRPGQSPKRLIYLVSKLDSGVPDRFTGSGSGTDFTLKISRVEAEDLGVYYCVQGSHFPYTFGGGTKLEIKAAADYKDHDGDYKDHDIDYKDDDDKAAAHHHHHH | no binding (tested: supernatant diluted 1:2) | no binding (tested: supernatant diluted 1:2) | – | – | – | – | – | – | – | – | – | – | – |
| W-ME107-10 scFv (scFv, V domains shown, Human scFv from SciLifeLib phage libraries) VH: not shown VL: DIQMTQSPSSLSASVGDRVTITCRASQSISSYLNWYQQKPGKAPKLLIYAASSLQSGVPSRFSGSGSGTDFTLTISSLQPEDFATYYCQQDYYLFTFGQGTKLEIK | – | – | 3.4 | 0.00017 | 51000 | 45 | 0.0018 | 40000 | no binding (tested: supernatant diluted 1:10) | no binding (tested: 200 nM) | – | – | – |
| W-ME107-27 scFv (scFv, V domains shown, Human scFv from SciLifeLib phage libraries) VH: EVQLLESGGGLVQPGGSLRLSCAASGFTFYGSYMGWVRQAPGKGLEWVSYISGYGGYTYYADSVKGRFTISRDNSKNTLYLQMNSLRAEDTAVYYCARTPYSAYIDYWGQGTLVTVSS VL: not shown | – | – | 3.1 | 0.00022 | 69000 | 2.4 | 0.00019 | 80000 | no binding (tested: supernatant diluted 1:10) | no binding (tested: 200 nM) | – | – | – |
| W-ME107-75 scFv (scFv, V domains shown, Human scFv from SciLifeLib phage libraries) VH: EVQLLESGGGLVQPGGSLRLSCAASGFTFYSYGMSWVRQAPGKGLEWVSYISGGGSYTYYADSVKGRFTISRDNSKNTLYLQMNSLRAEDTAVYYCARGSYSHYGAHYLDYWGQGTLVTVSS VL: DIQMTQSPSSLSASVGDRVTITCRASQSISSYLNWYQQKPGKAPKLLIYAASSLQSGVPSRFSGSGSGTDFTLTISSLQPEDFATYYCQQALSSLPTFGQGTKLEIK | – | – | 36 | 0.0079 | 220000 | 80 | 0.0036 | 45000 | no binding (tested: supernatant diluted 1:10) | no binding (tested: 200 nM) | 5.4 | 0.00026 | 48000 |
| W-ME107-117 scFv (scFv, V domains shown) VH: EVQLLESGGGLVQPGGSLRLSCAASGFTFSGSYMSWVRQAPGKGLEWVSSIYGSGGYTYYADSVKGRFTISRDNSKNTLYLQMNSLRAEDTAVYYCARYSPFYMDYWGQGTLVTVSS VL: not shown | – | – | 22 | 0.0033 | 150000 | – | – | – | – | – | 7.8 | 0.00035 | 45000 |
